What all share (test): cell-based or functional assay
In assay [1] the target is human glucagon receptor (human) (UniProt P47871).
Assay [2] has as its target hGLP-1R (Homo sapiens, UniProt P43220).
The target in assay [3] is T1, human GIP receptor (human) (UniProt P48546).
T1 sequence (looked up): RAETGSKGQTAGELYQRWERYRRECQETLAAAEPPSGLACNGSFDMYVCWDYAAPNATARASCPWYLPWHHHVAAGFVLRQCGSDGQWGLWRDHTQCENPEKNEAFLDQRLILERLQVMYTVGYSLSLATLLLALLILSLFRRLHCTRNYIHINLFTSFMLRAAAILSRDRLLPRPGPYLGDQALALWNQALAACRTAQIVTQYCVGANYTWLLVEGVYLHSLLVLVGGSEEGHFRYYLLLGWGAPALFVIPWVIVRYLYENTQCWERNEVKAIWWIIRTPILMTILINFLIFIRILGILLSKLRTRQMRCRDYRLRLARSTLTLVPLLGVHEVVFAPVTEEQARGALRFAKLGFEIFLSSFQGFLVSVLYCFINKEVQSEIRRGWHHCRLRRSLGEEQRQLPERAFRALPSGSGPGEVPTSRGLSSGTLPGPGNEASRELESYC

This passage reports Relative cAMP EC50 and cAMP Rel EC50 (in the presence of 1% HSA) results from patent publication US20240270821A1, “GIP/GLP1/GCG TRI-RECEPTOR AGONISTS AND USES THEREOF” (priority 2023, published 2024).

hGLP-1R, sequence (P43220 24-463): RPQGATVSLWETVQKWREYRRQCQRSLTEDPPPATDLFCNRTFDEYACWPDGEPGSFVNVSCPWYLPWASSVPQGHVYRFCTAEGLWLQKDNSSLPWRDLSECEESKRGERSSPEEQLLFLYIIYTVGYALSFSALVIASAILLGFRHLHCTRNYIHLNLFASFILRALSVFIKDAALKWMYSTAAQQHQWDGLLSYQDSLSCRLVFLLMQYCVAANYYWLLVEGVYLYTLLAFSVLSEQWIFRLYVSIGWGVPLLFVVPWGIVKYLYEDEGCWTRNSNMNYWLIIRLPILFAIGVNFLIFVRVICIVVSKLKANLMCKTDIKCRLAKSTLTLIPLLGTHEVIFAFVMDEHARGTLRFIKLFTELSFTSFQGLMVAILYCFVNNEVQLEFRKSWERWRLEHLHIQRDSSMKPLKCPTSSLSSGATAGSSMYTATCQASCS
human glucagon receptor (human), sequence (P47871 26-477): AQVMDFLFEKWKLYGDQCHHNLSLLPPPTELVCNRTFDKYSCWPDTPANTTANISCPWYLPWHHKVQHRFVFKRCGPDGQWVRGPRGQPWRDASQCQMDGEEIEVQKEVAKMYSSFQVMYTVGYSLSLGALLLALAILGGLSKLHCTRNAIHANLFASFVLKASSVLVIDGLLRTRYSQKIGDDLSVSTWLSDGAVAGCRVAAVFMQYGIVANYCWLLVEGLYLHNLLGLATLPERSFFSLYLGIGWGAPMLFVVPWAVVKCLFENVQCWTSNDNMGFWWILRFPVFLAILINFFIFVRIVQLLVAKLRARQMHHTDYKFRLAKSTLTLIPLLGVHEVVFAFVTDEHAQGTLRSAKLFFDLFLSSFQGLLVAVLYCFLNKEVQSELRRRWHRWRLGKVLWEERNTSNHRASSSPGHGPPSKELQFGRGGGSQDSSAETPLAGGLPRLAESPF

B1: Example 1192 (peptide)
chain: YXQGTXTSDXXIXLDXKAQXEFIEXLIEGGPSSXAPPPEGE
modifications: non-natural residues; AEEA-γGlu-C18 diacid on Lys; C-terminal amide; synthetic construct; SITE 2: note = 2-Aminoisobutyric Acid; SITE 6: note = alpha-methyl-2-fluoro-L-phenylalanine; SITE 10: note = 3-(4-Pyridyl)-L-alanine; SITE 11: note = alpha-methyl-L-serine; SITE 13: note = alpha-methyl-leucine; SITE 16: note = L-ornithine; SITE 17: note = Lysine is chemically mo
For the molecule B1, the Relative cAMP EC50 stood at 1.54 nM in assay [1], 0.499 nM in assay [2] and 0.00924 nM in assay [3]. Moreover, the cAMP Rel EC50 (in the presence of 1% HSA) in assay [1] turned out to be 218 nM; in assay [2], 59.5 nM; in assay [3], 1.06 nM.

B2: Example 1180 (peptide)
chain: YXQGTXTSDXXIXLDXKAQXEFIEXLIEGGPSSGAPPPSGGGE
modifications: Non-natural residues; K acylated AEEA-(γGlu)2-C18 diacid; C-terminal amide; synthetic construct; SITE 2: note = 2-Aminoisobutyric Acid; SITE 6: note = alpha-methyl-2-fluoro-L-phenylalanine; SITE 10: note = 3-(4-Pyridyl)-L-alanine; SITE 11: note = alpha-methyl-L-serine; SITE 13: note = alpha-methyl-leucine; SITE 16: note = L-ornithine; SITE 17: note = Lysine is chemically mo
Regarding B2, the Relative cAMP EC50 in assay [1] stood at 3.16 nM; in assay [2], 0.445 nM; in assay [3] it was 0.00602 nM. The results for the cAMP Rel EC50 (in the presence of 1% HSA) in assay [1], in assay [2] and in assay [3] were 205 nM, 35.6 nM and 0.341 nM, respectively.

B3: Example 1187 (peptide)
chain: YXQGTFTSDXXQXLDXKAQXQFIEXLIEXGPSSGAPPPSGGGE
modifications: not fully specified; acylated lysine γGlu-C18 diacid; non-natural residues; C-terminal amide; synthetic construct; SITE 2: note = 2-Aminoisobutyric Acid; SITE 10: note = 3-(4-Pyridyl)-L-alanine; SITE 11: note = alpha-methyl-L-serine; SITE 13: note = alpha-methyl-leucine; SITE 16: note = L-ornithine; SITE 17: note = Lysine is chemically modified through conjugation of the epsilon-amino group
As for B3, the values for the Relative cAMP EC50 in assay [1], in assay [2] and in assay [3] were 1.81 nM, 1.06 nM and 0.0648 nM, respectively. The results for the cAMP Rel EC50 (in the presence of 1% HSA) in assay [1], in assay [2] and in assay [3] were 370 nM, 154 nM and 7.11 nM, respectively.

B4: Example 1188 (peptide)
chain: YXQGTFTSDXXQXLDXKAQXQFIQXLIEGGPSSGEPPPSGGGE
modifications: not fully specified; non-natural residues, lipidated Lys, C-terminal amide; synthetic construct; SITE 2: note = 2-Aminoisobutyric Acid; SITE 10: note = 3-(4-Pyridyl)-L-alanine; SITE 11: note = alpha-methyl-L-serine; SITE 13: note = alpha-methyl-leucine; SITE 16: note = L-ornithine; SITE 17: note = Lysine is chemically modified through conjugation of the epsilon-amino group
In the case of B4, the Relative cAMP EC50 in assay [1] was 1.16 nM; in assay [2] it was 1.01 nM; in assay [3], 0.0914 nM. Further, the values for the cAMP Rel EC50 (in the presence of 1% HSA) in assay [1], in assay [2] and in assay [3] were 130 nM, 77.1 nM and 7.02 nM, respectively.

B5: Example 1197 (peptide)
chain: YXQGTXTSDXXIXLDXKAQXEFIEXLIEGGPPSXXPPPXGGGE
modifications: Lys acylated AEEA-γGlu-C18 diacid; non-natural residues; C-amide; synthetic construct; SITE 2: note = 2-Aminoisobutyric Acid; SITE 6: note = alpha-methyl-2-fluoro-L-phenylalanine; SITE 10: note = 3-(4-Pyridyl)-L-alanine; SITE 11: note = alpha-methyl-L-serine; SITE 13: note = alpha-methyl-leucine; SITE 16: note = L-ornithine; SITE 17: note = Lysine is chemically mo
B5: the Relative cAMP EC50 in assay [1] was determined as 1.88 nM; in assay [2] it was 0.407 nM; in assay [3], 0.00666 nM. For the same molecule, the cAMP Rel EC50 (in the presence of 1% HSA) in assay [1] was determined as 288 nM; in assay [2], 46.1 nM; in assay [3], 0.639 nM.

B6: Example 1186 (peptide)
chain: YXQGTFTSDXXQXLDXKAQXQFIQXLIEXGPSSGAPPPSGGGE
modifications: not fully specified; Aib, 4Pal, Me4Pal, alpha-methyl residues, Orn, lipidated Lys, amide; synthetic construct; SITE 2: note = 2-Aminoisobutyric Acid; SITE 10: note = 3-(4-Pyridyl)-L-alanine; SITE 11: note = alpha-methyl-L-serine; SITE 13: note = alpha-methyl-leucine; SITE 16: note = L-ornithine; SITE 17: note = Lysine is chemically modified through conjugation of the epsilon-amino group
Take B6: the Relative cAMP EC50 amounted to 1.46 nM in assay [1], 0.594 nM in assay [2] and 0.0404 nM in assay [3]. The cAMP Rel EC50 (in the presence of 1% HSA) in assay [1] worked out at 164 nM; in assay [2] it was 52.1 nM; in assay [3] it was 3.17 nM.

B7: Example 1184 (peptide)
chain: YXQGTFTSDXXQXLDXKAQXQFIEXLIEXGPSSGEPPPSGGGE
modifications: non-natural residues; Lys acylated with γGlu-C18 diacid; C-terminal amide; synthetic construct; SITE 2: note = 2-Aminoisobutyric Acid; SITE 10: note = 3-(4-Pyridyl)-L-alanine; SITE 11: note = alpha-methyl-L-serine; SITE 13: note = alpha-methyl-leucine; SITE 16: note = L-ornithine; SITE 17: note = Lysine is chemically modified through conjugation of the epsilon-amino group
Turning to B7, the Relative cAMP EC50 in assay [1] stood at 1.5 nM; in assay [2], 1.18 nM; in assay [3] it was 0.071 nM. Further, the cAMP Rel EC50 (in the presence of 1% HSA) in assay [1] was 295 nM; in assay [2], 179 nM; in assay [3], 8.39 nM.

B8: Example 1185 (peptide)
chain: YXQGTFTSDXXQXLDXKAQXQFIEXLIAXGPSSGAPPPSGGGE
modifications: not fully specified; non-natural residues; Lys acylated with γGlu-C18 diacid; C-terminal amide; synthetic construct; SITE 2: note = 2-Aminoisobutyric Acid; SITE 10: note = 3-(4-Pyridyl)-L-alanine; SITE 11: note = alpha-methyl-L-serine; SITE 13: note = alpha-methyl-leucine; SITE 16: note = L-ornithine; SITE 17: note = Lysine is chemically modified through conjugation of the epsilon-amino group
As to B8, the figures for the Relative cAMP EC50 in assay [1], in assay [2] and in assay [3] were 1.64 nM, 0.762 nM and 0.0266 nM, respectively. Moreover, the results for the cAMP Rel EC50 (in the presence of 1% HSA) in assay [1], in assay [2] and in assay [3] were 206 nM, 66.1 nM and 2.31 nM, respectively.

B9: Example 1181 (peptide)
chain: YXQGTXTSDXXIXLDXKAQXEFIEXLIEGGPSSGEPPPSGGGE
modifications: non-natural residues, AEEA-(γGlu)2-C18 diacid acyl on K, C-terminal amide; synthetic construct; SITE 2: note = 2-Aminoisobutyric Acid; SITE 6: note = alpha-methyl-2-fluoro-L-phenylalanine; SITE 10: note = 3-(4-Pyridyl)-L-alanine; SITE 11: note = alpha-methyl-L-serine; SITE 13: note = alpha-methyl-leucine; SITE 16: note = L-ornithine; SITE 17: note = Lysine is chemically mo
Take B9: the results for the Relative cAMP EC50 in assay [1], in assay [2] and in assay [3] were 3.34 nM, 0.664 nM and 0.0115 nM, respectively. The cAMP Rel EC50 (in the presence of 1% HSA) in assay [1] was 203 nM; in assay [2], 48.2 nM; in assay [3], 0.666 nM.

B10: Example 1182 (peptide)
chain: YXQGTFTSDXXQXLDXKAQXQFIEXLIAXGPSSGEPPPSGGGE
modifications: non-natural residues; lysine acylated with C18 diacid; C-terminal amide; synthetic construct; SITE 2: note = 2-Aminoisobutyric Acid; SITE 10: note = 3-(4-Pyridyl)-L-alanine; SITE 11: note = alpha-methyl-L-serine; SITE 13: note = alpha-methyl-leucine; SITE 16: note = L-ornithine; SITE 17: note = Lysine is chemically modified through conjugation of the epsilon-amino group
B10: the Relative cAMP EC50 came out at 1.24 nM in assay [1], 0.797 nM in assay [2] and 0.0316 nM in assay [3]. Moreover, the results for the cAMP Rel EC50 (in the presence of 1% HSA) in assay [1], in assay [2] and in assay [3] were 172 nM, 80.4 nM and 2.73 nM, respectively.

B11: Example 1183 (peptide)
chain: YXQGTFTSDXXQXLDXKAQXQFIQXLIEXGPSSGEPPPSGGGE
modifications: non-natural residues; lipidated Lys; C-terminal amide; synthetic construct; SITE 2: note = 2-Aminoisobutyric Acid; SITE 10: note = 3-(4-Pyridyl)-L-alanine; SITE 11: note = alpha-methyl-L-serine; SITE 13: note = alpha-methyl-leucine; SITE 16: note = L-ornithine; SITE 17: note = Lysine is chemically modified through conjugation of the epsilon-amino group
Take B11: the values for the Relative cAMP EC50 in assay [1], in assay [2] and in assay [3] were 1.38 nM, 0.769 nM and 0.0484 nM, respectively. The cAMP Rel EC50 (in the presence of 1% HSA) is 127 nM in assay [1], 53.6 nM in assay [2] and 3.16 nM in assay [3].
